This passage reports Ki results from publication PMC6838674, “Apelin-36-[L28A] and Apelin-36-[L28C(30kDa-PEG)] peptides that improve diet induced obesity are G protein biased ligands at the apelin receptor” (Peptides, 2019).

For assay [1], the target named is T1, apelin receptor (Rattus norvegicus), Q9JHG3.
T1 chain: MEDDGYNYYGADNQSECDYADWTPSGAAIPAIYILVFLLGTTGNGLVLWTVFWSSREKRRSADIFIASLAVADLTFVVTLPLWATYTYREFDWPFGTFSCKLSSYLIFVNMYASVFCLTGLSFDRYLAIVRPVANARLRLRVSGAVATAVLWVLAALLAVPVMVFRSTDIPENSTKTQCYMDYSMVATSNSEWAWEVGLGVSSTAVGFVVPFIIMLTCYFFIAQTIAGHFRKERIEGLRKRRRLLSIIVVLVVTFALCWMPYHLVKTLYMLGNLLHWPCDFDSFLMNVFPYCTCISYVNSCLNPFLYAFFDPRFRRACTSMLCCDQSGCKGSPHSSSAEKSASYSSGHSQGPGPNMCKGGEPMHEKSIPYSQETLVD
The experiment in a line: radioligand competition binding, heart homogenate. The following applies: modification not given. Background: Loss of bound radioactivity is the signal in a displacement assay; it reports binding, not function.

Assay [2] has as its target T2, apelin receptor (Rattus norvegicus), Q9JHG3.
T2 chain: T1 chain with A28C
The experiment in a line: radioligand competition binding, heart homogenate. The following applies: modification not given.

Where a chain is given by its changes, count along the chain named. In names and notes the source's numbering stands. Ends that are not written are not given here.

Turning to LVQPRGSRNGPGPWQGGRRKFRRQRPRASHKGPMPF (not fully specified) [apelin-36-[L28A]], in assay [1], the inhibition constant (Ki) (usually a dissociation constant, usually derived from enzyme kinetics or from competition with a known ligand) amounted to 0.309 nM.
LVQPRGSRNGPGPWQGGRRKFRRQRPRCSHKGPMPF [apelin-36-[L28C(30kDa-PEG)]] returned an inhibitory constant (Ki) in assay [2] of 8.71 nM.
